For one substance, activity (% of reporter genes with NHEJ mutations) results are on record in patent US20210054388.

The subject of this series is Zif268::FokI zinc finger nuclease (synthetic). In words: cell_activity. The note with it: N. tabacum leaf, pLSLZ.D + p35SREP, 7 dpi; 6 of 8 sequenced resistant clones mutated.

“Zif268 target site in gus::nptII reporter”: the activity (% of reporter genes with NHEJ mutations) is 10.
